{"source": "paper PMC4102620", "about": "(Journal of molecular biology, 2014)", "binders": {"B1": {"name": "fluorescently labeled wild type ubiquitin (FL-UB) (natural protein)", "chain": "not shown", "modifications": "fluorescein (iodoacetamide) on the unique cysteine of the N-terminal tag"}}, "biological_target": "yeast E1 (Uba1) (yeast, UniProt P22515 1-1024, biotin on the C-terminal biotin ligase acceptor peptide)", "assay": "fluorescent FL-UB-E1 band on non-reducing SDS-PAGE", "data": [{"binder": "B1", "values": [{"measurement": "binding result", "value": "binds"}]}]}
